Measurements from patent publication US20200048649A1 (CENTRE NATIONAL DE LA RECHERCHE SCIENTIFIQUE, published 2020).

Legend:
[1] = target: T1, TRCP VLP (virus-like particle of GFLV CP fused at its N-terminus to TagRFP) (Grapevine fanleaf virus isolate F13 (CP …)); assay: microscale thermophoresis in solution, fluorescent TRCP VLP constant, nanobody titrated, 1:1 model, n=3; SD ±2.91
T1 construct: also called TRCP VLPs; VLP-TRCP

[2] = target: T1, TRCP VLP (virus-like particle of GFLV …); assay: dynamic light scattering; TRCP VLP alone 32.0 nm±2 nm
[3] = target: T1, TRCP VLP (virus-like particle of GFLV …); assay: microscale thermophoresis in solution, fluorescent TRCP VLP constant, nanobody titrated, 1:1 model, n=3; SD ±13.63
[4] = target: T2, Grapevine fanleaf virus (GFLV) isolate F13 particles (capsid made of the coat protein, CP) (Grapevine fanleaf virus isolate F13, UniProt P18474 606-1109); assay: competitive ELISA on coated GFLV, legend of FIG. 19a
T2 sequence: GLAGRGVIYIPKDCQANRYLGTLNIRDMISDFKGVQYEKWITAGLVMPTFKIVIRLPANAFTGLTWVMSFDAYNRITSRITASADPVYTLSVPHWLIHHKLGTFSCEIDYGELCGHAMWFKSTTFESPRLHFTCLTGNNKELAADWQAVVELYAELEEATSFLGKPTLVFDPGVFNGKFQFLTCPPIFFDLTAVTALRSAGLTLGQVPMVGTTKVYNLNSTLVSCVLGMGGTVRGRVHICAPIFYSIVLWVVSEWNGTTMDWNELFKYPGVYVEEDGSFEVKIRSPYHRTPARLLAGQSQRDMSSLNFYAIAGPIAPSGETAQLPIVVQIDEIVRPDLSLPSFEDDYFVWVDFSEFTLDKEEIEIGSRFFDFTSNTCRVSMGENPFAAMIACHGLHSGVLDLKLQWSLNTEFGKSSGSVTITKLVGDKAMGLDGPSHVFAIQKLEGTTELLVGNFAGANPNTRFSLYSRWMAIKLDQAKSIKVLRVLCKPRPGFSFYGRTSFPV

[5] = target: T2, Grapevine fanleaf virus (GFLV) isolate …
[6] = target: T2, Grapevine fanleaf virus (GFLV) isolate …; assay: DAS-ELISA on infected leaves, capture by Ab BIOREBA, detection by Nb:ALP
[7] = target: T1, TRCP VLP (virus-like particle of GFLV …); assay: microscale thermophoresis in solution, fluorescent TRCP VLP constant, nanobody titrated, 1:1 model, n=3; SD ±3.37
[8] = target: T2, Grapevine fanleaf virus (GFLV) isolate …; assay: DAS-ELISA on infected leaves, capture Ab Bioreba, detection Nbp75:ALP

B1: Nanobody Nb23 (VHH)
VHH: QVQLQESGGGSVQVGGSLRVACAASGDTFSGYLAAWFRQAPGKGREGVAAINSKRHTTSYADSVKGRFTISKDNADNIMYLEMNSLKPEDTAIYYCAAADAIGLAEYWSTPTLSAARYKYWGQGTQVTVSS
- Kd [1]: 9.13 nM
- particle diameter of the VLP saturated with the nanobody (DLS) [2]: 37.8 nm

B2: Nb23 fused to EGFP (VHH)
VHH: B1 VHH
- particle diameter of the VLP saturated with the nanobody (DLS) [2]: 43.8 nm

B3: Nanobody Nb122 (VHH)
VHH: QVQLQESGGGSVQGGGSLRLSCAVSGYRFSSYAMAWFRQAPGKEREAVAAYYRGFGGAQHSTHYAASVTGRFTITQNDALNTGYLQMNNLKPEDTAMYYCALSTADDDDWHSLRRYNYWGQGTQVTVSS
- Kd [3]: 34.5 nM

B4: Strep-tagged Nb122 (VHH)
VHH: B3 VHH
- binding result [4]: binds

B5: Nb122 fused to alkaline phosphatase (VHH)
chain: MAQVQLQESGGGSVQGGGSLRLSCAVSGYRFSSYAMAWFRQAPGKEREAVAAYYRGFGGAQHSTHYAASVTGRFTITQNDALNTGYLQMNNLKPEDTAMYYCALSTADDDDWHSLRRYNYWGQGTQVTVSSGGGSGGGVKQSTIALALLPLLFTPVTKARTPEMPLQTQATSREEPPRLPSKHRPGVKTQATSREEPPRLPSKHRPGVKTQATSREEPPRLPSKHRPGVKTQATSREEPPRLPSKHRPGVKTQATSLEVLENRAAQGDITAPGGARRLTGDQTAALRDSLSDKPAKNIILLIGDGMGDSEITAARNYAEGAGGFFKGIDALPLTGQYTHYALNKKTGKPDYVTDSAASATAWSTGVKTYNGALGVDIHEKDHPTILEMAKAAGLATGNVSTAELQDATPAALVAHVTSRKCYGPSATSEKCPGNALEKGGKGSITEQLLNARADVTLGGGAKTFAETATAGEWQGKTLREQAQARGYQLVSDAASLNSVTEANQQKPLLGLFADGNMPVRWLGPKATYHGNIDKPAVTCTPNPQRNDSVPTLAQMTDKAIELLSKNEKGFFLQVEGASIDKQDHAANPCGQIGETVDLDEAVQRALEFAKKEGNTLVIVTADHAHASQIVAPDTKAPGLTQALNTKDGAVMVMSYGNSEEDSQEHTGSQLRIAAYGPHAAHHHHHH
- EC50 (read off the curve) [5]: ~10000 nM

B6: Strep-tagged Nb125 (VHH)
VHH: QVQLQESGGGSVQAGGSLRLSCAASGYTYSMYCMAWFRQAPGKEREGVAAINSGNRSTYYADSVKGRFTISQDNAKNTVYLIMNSLKPEDTAIYYCAADPQRCGSWTWANMYEYNYWGQGTQVTVSS
- binding result [4]: binds

B7: Nbp59 fused to alkaline phosphatase (VHH)
VHH: QVQLQESGGGTVQAGGSLRLSCSISGDTSNSYCMGWFRQAPGKEREVVAHISTGVISPGYNKFSEGRFTISPDNAKNSVYLQMNNLKPDDTAMYYCAARTGYCSGSWGVADSFNGWGQGTQVTVSS
- binding result [6]: binds

B8: Nanobody Nbp59 (VHH)
VHH: B7 VHH
- Kd [7]: 12.6 nM

B9: Strep-tagged Nbp59 (VHH)
VHH: B7 VHH
- binding result [4]: binds

B10: Nb23 fused to bacterial alkaline phosphatase (VHH)
chain: QVQLQESGGGSVQVGGSLRVACAASGDTFSGYLAAWFRQAPGKGREGVAAINSKRHTTSYADSVKGRFTISKDNADNIMYLEMNSLKPEDTAIYYCAAADAIGLAEYWSTPTLSAARYKYWGQGTQVTVSSGGGSGGGVKQSTIALALLPLLFTPVTKARTPEMPLQTQATSREEPPRLPSKHRPGVKTQATSREEPPRLPSKHRPGVKTQATSREEPPRLPSKHRPGVKTQATSREEPPRLPSKHRPGVKTQATSLEVLENRAAQGDITAPGGARRLTGDQTAALRDSLSDKPAKNIILLIGDGMGDSEITAARNYAEGAGGFFKGIDALPLTGQYTHYALNKKTGKPDYVTDSAASATAWSTGVKTYNGALGVDIHEKDHPTILEMAKAAGLATGNVSTAELQDATPAALVAHVTSRKCYGPSATSEKCPGNALEKGGKGSITEQLLNARADVTLGGGAKTFAETATAGEWQGKTLREQAQARGYQLVSDAASLNSVTEANQQKPLLGLFADGNMPVRWLGPKATYHGNIDKPAVTCTPNPQRNDSVPTLAQMTDKAIELLSKNEKGFFLQVEGASIDKQDHAANPCGQIGETVDLDEAVQRALEFAKKEGNTLVIVTADHAHASQIVAPDTKAPGLTQALNTKDGAVMVMSYGNSEEDSQEHTGSQLRIAAYGPHAAHHHHHH
- particle diameter of the VLP saturated with the nanobody (DLS) [2]: 40 nm

B11: Strep-tagged Nbp75 (VHH)
VHH: QVQLQESGGGSVQAGGSLRLSCVASEYPSSSTAMAWFRQAPGKEREGVAAINSVRHTTSYADSVKGRFTISKDNADNMMYLEMNSLKPEDTAIYYCAAADAIGLAEYWSTPTLSAARYKYWGQGTQVTVSS
- binding result [4]: binds

B12: Nbp75 fused to alkaline phosphatase (VHH)
VHH: B11 VHH
- binding result [8]: binds
